Results reported in IntAct's records for PubMed 12446441.

B1: Ras-related protein Rab-27A (Homo sapiens), P51159-1 (parent)
chain: MSDGDYDYLIKFLALGDSGVGKTSVLYQYTDGKFNSKFITTVGIDFREKRVVYRASGPDGATGRGQRIHLQLWDTAGQERFRSLTTAFFRDAMGFLLLFDLTNEQSFLNVRNWISQLQMHAYCENPDIVLCGNKSDLEDQRVVKEEEAIALAEKYGIPYFETSAANGTNISQAIEMLLDLIMKRMERCVDKSWIPEGVVRSNGHASTDQLSEEKEKGACGC
partner: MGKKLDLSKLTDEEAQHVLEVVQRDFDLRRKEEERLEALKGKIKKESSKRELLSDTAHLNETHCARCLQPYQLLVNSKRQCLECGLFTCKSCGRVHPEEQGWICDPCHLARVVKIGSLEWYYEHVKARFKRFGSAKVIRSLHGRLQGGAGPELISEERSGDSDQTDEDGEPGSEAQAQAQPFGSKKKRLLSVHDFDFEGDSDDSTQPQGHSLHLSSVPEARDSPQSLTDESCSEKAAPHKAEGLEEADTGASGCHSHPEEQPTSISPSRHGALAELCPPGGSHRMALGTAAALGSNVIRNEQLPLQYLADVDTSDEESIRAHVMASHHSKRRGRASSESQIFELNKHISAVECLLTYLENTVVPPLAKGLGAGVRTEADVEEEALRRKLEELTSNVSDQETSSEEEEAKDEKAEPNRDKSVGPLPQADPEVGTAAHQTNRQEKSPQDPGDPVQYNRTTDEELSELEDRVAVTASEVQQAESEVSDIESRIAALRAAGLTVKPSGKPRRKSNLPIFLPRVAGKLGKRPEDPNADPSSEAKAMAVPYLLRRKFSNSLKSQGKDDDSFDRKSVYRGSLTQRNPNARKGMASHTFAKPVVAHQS

Variants of: B1
Settings: with melph_human MLPH

Row | effect of a mutation on the interaction | Variant
1 | disrupting interaction strength | MSDGDYDYLIKFLALGDSGVGKNSVLYQYTDGKFNSKFITTVGIDFREKRVVYRASGPDGATGRGQRIHLQLWDTAGQERFRSLTTAFFRDAMGFLLLFDLTNEQSFLNVRNWISQLQMHAYCENPDIVLCGNKSDLEDQRVVKEEEAIALAEKYGIPYFETSAANGTNISQAIEMLLDLIMKRMERCVDKSWIPEGVVRSNGHASTDQLSEEKEKGACGC [T23N]

Variants of: B1
Settings: with melph_human MLPH
Remark: another data set of the same source

Row | effect of a mutation on the interaction | Variant
2 | disrupting interaction strength | MSDGDYDYLIKFLALGDSGVGKTSVLYQYTDGKFNSKFITTVGIDFREKRVVYRASGPDGATGRGQRIHLQLLDTAGQERFRSLTTAFFRDAMGFLLLFDLTNEQSFLNVRNWISQLQMHAYCENPDIVLCGNKSDLEDQRVVKEEEAIALAEKYGIPYFETSAANGTNISQAIEMLLDLIMKRMERCVDKSWIPEGVVRSNGHASTDQLSEEKEKGACGC [W73L]
3 | disrupting interaction strength | MSDGDYDYLIKFLALGDSGVGKTSVLYQYTDGKFNSKFITTVGIDFREKRVVYRASGPDGATGRGQRIHLQLSDTAGQERFRSLTTAFFRDAMGFLLLFDLTNEQSFLNVRNWISQLQMHAYCENPDIVLCGNKSDLEDQRVVKEEEAIALAEKYGIPYFETSAANGTNISQAIEMLLDLIMKRMERCVDKSWIPEGVVRSNGHASTDQLSEEKEKGACGC [W73S]
4 | disrupting interaction strength | MSDGDYDYLIKFLALGDSGVGKTSVLYQYTDGKFNSKFITTVGIDFREKRVVYRASGPDGATGRGQRIHLQLGDTAGQERFRSLTTAFFRDAMGFLLLFDLTNEQSFLNVRNWISQLQMHAYCENPDIVLCGNKSDLEDQRVVKEEEAIALAEKYGIPYFETSAANGTNISQAIEMLLDLIMKRMERCVDKSWIPEGVVRSNGHASTDQLSEEKEKGACGC [W73G]
